Reference: article PMC9961482

Biological target: Encapsulin–SpyTag (Myxococcus xanthus | Streptococcus pyogenes) (UniProt Q1D6H4)
Assay: reducing SDS-PAGE + SEC

Sequence of Encapsulin–SpyTag (Myxococcus xanthus | Streptococcus pyogenes) (Q1D6H4 1-287, tags left off): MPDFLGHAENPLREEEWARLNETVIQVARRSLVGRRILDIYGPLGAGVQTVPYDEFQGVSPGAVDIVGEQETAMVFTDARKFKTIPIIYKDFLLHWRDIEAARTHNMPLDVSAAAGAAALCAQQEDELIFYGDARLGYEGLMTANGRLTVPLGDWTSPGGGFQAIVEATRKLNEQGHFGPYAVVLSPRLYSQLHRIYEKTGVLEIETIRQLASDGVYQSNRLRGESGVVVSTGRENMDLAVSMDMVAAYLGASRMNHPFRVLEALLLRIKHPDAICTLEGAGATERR

mRBD–SpyCatcher (from UniProt P0DTC2 332-532)
per cent conjugation: 90 per cent
